B1: T698M: TP-DNAP1 variant (protein)
chain: MDYKDKALNDLRNVYADFDSLPLDFRQILIKDRATLLQKEDVEKKILERQEDAKKYAEYLKQSEIPERISLPNIKRHKGVSISFEETSEDMVLEPRPFIFDGLNIRCFRRETIFSLKNKILNMVKESSSFKNVSRQSVSFMYFKIFNKGKVIASTKSVNIYEDKIDERLEDLCNNFDDVLKKIIDVTYGYESLFVSETYSYVIFYAKSIYFPQPRCVNNWGNNIPNILTFDSFKLFTANKNNVSCIKQCSRFLWQKDFNTLEEMIEYKNGNICIVTPQLHINDVRDIKSFNDIRLYSESPIKTFSVIDNTITYLFYFKEHLGVIFNITKSRHDRRVTKFSPLSKFSDVKNITVCFDIESYFDPEKESNQVNIPFICCASIIYNKVIGNIVDFEGRDCVAQMIEYVVDICGELNISSVELIAHNGGGYDFHYILSSMYNPAAIKNILIRNNSFISFNFAHDGVKFSVKDSYSFLLCSLANASKAFLNEETFKKTDFPHHDLKTADDLYKVYKEWSSVNTEINHVVEKEKLLITSEHIVNFTKNDKSKTLIEWSKDYCRNDVLVLSKVWLEFKNAVEDIFNCELVDQTMTLAGLSYKLFQANMPFDVELRHPNKEDYFNMREALIGGRCISVNGIYKDVLCLDVKSLYPASMAFYDQPYGSFKRVSSRPKDELGIYYVRVTPNRNNKSNFFPIRSHNKIMYNNFEESTYIAWYTNVDIDIGLSEGHNIEYIPFDSYGNIGYSWSKKGKIFEKYIKDVLYKLKIKYEKQNNKVKRNVIKIIMNSLWGKFAQKWVNFEYFIKSEDDIDFESEEAYKIWDTDFMLIKKIKESTYSSKPIQNGVFTLSWARYHMKSIWDAGAKEGAECIYSDTDSIFVHKEHFKKNAKFMLNGLKVPIIGSEVGQLELECEFDKLLCAGKKQYMGFYTYFQDGKPCIKEKKRFKGIPSNYIIPELYAHLLSGADKEAKIQFLKFRREWGSVKGYIENKTVKAT
B2: E703W: TP-DNAP1 variant (protein)
chain: MDYKDKALNDLRNVYADFDSLPLDFRQILIKDRATLLQKEDVEKKILERQEDAKKYAEYLKQSEIPERISLPNIKRHKGVSISFEETSEDMVLEPRPFIFDGLNIRCFRRETIFSLKNKILNMVKESSSFKNVSRQSVSFMYFKIFNKGKVIASTKSVNIYEDKIDERLEDLCNNFDDVLKKIIDVTYGYESLFVSETYSYVIFYAKSIYFPQPRCVNNWGNNIPNILTFDSFKLFTANKNNVSCIKQCSRFLWQKDFNTLEEMIEYKNGNICIVTPQLHINDVRDIKSFNDIRLYSESPIKTFSVIDNTITYLFYFKEHLGVIFNITKSRHDRRVTKFSPLSKFSDVKNITVCFDIESYFDPEKESNQVNIPFICCASIIYNKVIGNIVDFEGRDCVAQMIEYVVDICGELNISSVELIAHNGGGYDFHYILSSMYNPAAIKNILIRNNSFISFNFAHDGVKFSVKDSYSFLLCSLANASKAFLNEETFKKTDFPHHDLKTADDLYKVYKEWSSVNTEINHVVEKEKLLITSEHIVNFTKNDKSKTLIEWSKDYCRNDVLVLSKVWLEFKNAVEDIFNCELVDQTMTLAGLSYKLFQANMPFDVELRHPNKEDYFNMREALIGGRCISVNGIYKDVLCLDVKSLYPASMAFYDQPYGSFKRVSSRPKDELGIYYVRVTPNRNNKSNFFPIRSHNKITYNNFWESTYIAWYTNVDIDIGLSEGHNIEYIPFDSYGNIGYSWSKKGKIFEKYIKDVLYKLKIKYEKQNNKVKRNVIKIIMNSLWGKFAQKWVNFEYFIKSEDDIDFESEEAYKIWDTDFMLIKKIKESTYSSKPIQNGVFTLSWARYHMKSIWDAGAKEGAECIYSDTDSIFVHKEHFKKNAKFMLNGLKVPIIGSEVGQLELECEFDKLLCAGKKQYMGFYTYFQDGKPCIKEKKRFKGIPSNYIIPELYAHLLSGADKEAKIQFLKFRREWGSVKGYIENKTVKAT
B3: E704N: TP-DNAP1 variant (protein)
chain: MDYKDKALNDLRNVYADFDSLPLDFRQILIKDRATLLQKEDVEKKILERQEDAKKYAEYLKQSEIPERISLPNIKRHKGVSISFEETSEDMVLEPRPFIFDGLNIRCFRRETIFSLKNKILNMVKESSSFKNVSRQSVSFMYFKIFNKGKVIASTKSVNIYEDKIDERLEDLCNNFDDVLKKIIDVTYGYESLFVSETYSYVIFYAKSIYFPQPRCVNNWGNNIPNILTFDSFKLFTANKNNVSCIKQCSRFLWQKDFNTLEEMIEYKNGNICIVTPQLHINDVRDIKSFNDIRLYSESPIKTFSVIDNTITYLFYFKEHLGVIFNITKSRHDRRVTKFSPLSKFSDVKNITVCFDIESYFDPEKESNQVNIPFICCASIIYNKVIGNIVDFEGRDCVAQMIEYVVDICGELNISSVELIAHNGGGYDFHYILSSMYNPAAIKNILIRNNSFISFNFAHDGVKFSVKDSYSFLLCSLANASKAFLNEETFKKTDFPHHDLKTADDLYKVYKEWSSVNTEINHVVEKEKLLITSEHIVNFTKNDKSKTLIEWSKDYCRNDVLVLSKVWLEFKNAVEDIFNCELVDQTMTLAGLSYKLFQANMPFDVELRHPNKEDYFNMREALIGGRCISVNGIYKDVLCLDVKSLYPASMAFYDQPYGSFKRVSSRPKDELGIYYVRVTPNRNNKSNFFPIRSHNKITYNNFENSTYIAWYTNVDIDIGLSEGHNIEYIPFDSYGNIGYSWSKKGKIFEKYIKDVLYKLKIKYEKQNNKVKRNVIKIIMNSLWGKFAQKWVNFEYFIKSEDDIDFESEEAYKIWDTDFMLIKKIKESTYSSKPIQNGVFTLSWARYHMKSIWDAGAKEGAECIYSDTDSIFVHKEHFKKNAKFMLNGLKVPIIGSEVGQLELECEFDKLLCAGKKQYMGFYTYFQDGKPCIKEKKRFKGIPSNYIIPELYAHLLSGADKEAKIQFLKFRREWGSVKGYIENKTVKAT
B4: E298G, S305F: TP-DNAP1 variant (protein)
chain: MDYKDKALNDLRNVYADFDSLPLDFRQILIKDRATLLQKEDVEKKILERQEDAKKYAEYLKQSEIPERISLPNIKRHKGVSISFEETSEDMVLEPRPFIFDGLNIRCFRRETIFSLKNKILNMVKESSSFKNVSRQSVSFMYFKIFNKGKVIASTKSVNIYEDKIDERLEDLCNNFDDVLKKIIDVTYGYESLFVSETYSYVIFYAKSIYFPQPRCVNNWGNNIPNILTFDSFKLFTANKNNVSCIKQCSRFLWQKDFNTLEEMIEYKNGNICIVTPQLHINDVRDIKSFNDIRLYSGSPIKTFFVIDNTITYLFYFKEHLGVIFNITKSRHDRRVTKFSPLSKFSDVKNITVCFDIESYFDPEKESNQVNIPFICCASIIYNKVIGNIVDFEGRDCVAQMIEYVVDICGELNISSVELIAHNGGGYDFHYILSSMYNPAAIKNILIRNNSFISFNFAHDGVKFSVKDSYSFLLCSLANASKAFLNEETFKKTDFPHHDLKTADDLYKVYKEWSSVNTEINHVVEKEKLLITSEHIVNFTKNDKSKTLIEWSKDYCRNDVLVLSKVWLEFKNAVEDIFNCELVDQTMTLAGLSYKLFQANMPFDVELRHPNKEDYFNMREALIGGRCISVNGIYKDVLCLDVKSLYPASMAFYDQPYGSFKRVSSRPKDELGIYYVRVTPNRNNKSNFFPIRSHNKITYNNFEESTYIAWYTNVDIDIGLSEGHNIEYIPFDSYGNIGYSWSKKGKIFEKYIKDVLYKLKIKYEKQNNKVKRNVIKIIMNSLWGKFAQKWVNFEYFIKSEDDIDFESEEAYKIWDTDFMLIKKIKESTYSSKPIQNGVFTLSWARYHMKSIWDAGAKEGAECIYSDTDSIFVHKEHFKKNAKFMLNGLKVPIIGSEVGQLELECEFDKLLCAGKKQYMGFYTYFQDGKPCIKEKKRFKGIPSNYIIPELYAHLLSGADKEAKIQFLKFRREWGSVKGYIENKTVKAT
B5: E703H: TP-DNAP1 variant (protein)
chain: MDYKDKALNDLRNVYADFDSLPLDFRQILIKDRATLLQKEDVEKKILERQEDAKKYAEYLKQSEIPERISLPNIKRHKGVSISFEETSEDMVLEPRPFIFDGLNIRCFRRETIFSLKNKILNMVKESSSFKNVSRQSVSFMYFKIFNKGKVIASTKSVNIYEDKIDERLEDLCNNFDDVLKKIIDVTYGYESLFVSETYSYVIFYAKSIYFPQPRCVNNWGNNIPNILTFDSFKLFTANKNNVSCIKQCSRFLWQKDFNTLEEMIEYKNGNICIVTPQLHINDVRDIKSFNDIRLYSESPIKTFSVIDNTITYLFYFKEHLGVIFNITKSRHDRRVTKFSPLSKFSDVKNITVCFDIESYFDPEKESNQVNIPFICCASIIYNKVIGNIVDFEGRDCVAQMIEYVVDICGELNISSVELIAHNGGGYDFHYILSSMYNPAAIKNILIRNNSFISFNFAHDGVKFSVKDSYSFLLCSLANASKAFLNEETFKKTDFPHHDLKTADDLYKVYKEWSSVNTEINHVVEKEKLLITSEHIVNFTKNDKSKTLIEWSKDYCRNDVLVLSKVWLEFKNAVEDIFNCELVDQTMTLAGLSYKLFQANMPFDVELRHPNKEDYFNMREALIGGRCISVNGIYKDVLCLDVKSLYPASMAFYDQPYGSFKRVSSRPKDELGIYYVRVTPNRNNKSNFFPIRSHNKITYNNFHESTYIAWYTNVDIDIGLSEGHNIEYIPFDSYGNIGYSWSKKGKIFEKYIKDVLYKLKIKYEKQNNKVKRNVIKIIMNSLWGKFAQKWVNFEYFIKSEDDIDFESEEAYKIWDTDFMLIKKIKESTYSSKPIQNGVFTLSWARYHMKSIWDAGAKEGAECIYSDTDSIFVHKEHFKKNAKFMLNGLKVPIIGSEVGQLELECEFDKLLCAGKKQYMGFYTYFQDGKPCIKEKKRFKGIPSNYIIPELYAHLLSGADKEAKIQFLKFRREWGSVKGYIENKTVKAT
B6: E703R: TP-DNAP1 variant (protein)
chain: MDYKDKALNDLRNVYADFDSLPLDFRQILIKDRATLLQKEDVEKKILERQEDAKKYAEYLKQSEIPERISLPNIKRHKGVSISFEETSEDMVLEPRPFIFDGLNIRCFRRETIFSLKNKILNMVKESSSFKNVSRQSVSFMYFKIFNKGKVIASTKSVNIYEDKIDERLEDLCNNFDDVLKKIIDVTYGYESLFVSETYSYVIFYAKSIYFPQPRCVNNWGNNIPNILTFDSFKLFTANKNNVSCIKQCSRFLWQKDFNTLEEMIEYKNGNICIVTPQLHINDVRDIKSFNDIRLYSESPIKTFSVIDNTITYLFYFKEHLGVIFNITKSRHDRRVTKFSPLSKFSDVKNITVCFDIESYFDPEKESNQVNIPFICCASIIYNKVIGNIVDFEGRDCVAQMIEYVVDICGELNISSVELIAHNGGGYDFHYILSSMYNPAAIKNILIRNNSFISFNFAHDGVKFSVKDSYSFLLCSLANASKAFLNEETFKKTDFPHHDLKTADDLYKVYKEWSSVNTEINHVVEKEKLLITSEHIVNFTKNDKSKTLIEWSKDYCRNDVLVLSKVWLEFKNAVEDIFNCELVDQTMTLAGLSYKLFQANMPFDVELRHPNKEDYFNMREALIGGRCISVNGIYKDVLCLDVKSLYPASMAFYDQPYGSFKRVSSRPKDELGIYYVRVTPNRNNKSNFFPIRSHNKITYNNFRESTYIAWYTNVDIDIGLSEGHNIEYIPFDSYGNIGYSWSKKGKIFEKYIKDVLYKLKIKYEKQNNKVKRNVIKIIMNSLWGKFAQKWVNFEYFIKSEDDIDFESEEAYKIWDTDFMLIKKIKESTYSSKPIQNGVFTLSWARYHMKSIWDAGAKEGAECIYSDTDSIFVHKEHFKKNAKFMLNGLKVPIIGSEVGQLELECEFDKLLCAGKKQYMGFYTYFQDGKPCIKEKKRFKGIPSNYIIPELYAHLLSGADKEAKIQFLKFRREWGSVKGYIENKTVKAT

The test deals with p1. Briefly: p1 copy number by p1-encoded mKate2 fluorescence. The format is cell-based, S. cerevisiae. The note with it: OR-Y24, measured in triplicate. The method, boiled down:
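Yeast OR-Y24 strains carrying TP-DNAP1 variants were grown to saturation from a 1:10,000 dilution, and p1-encoded mKate2 fluorescence was measured by flow cytometry (ex/em 561/620 nm). Values were converted to copy number via a linear calibration against qPCR of p1-encoded LEU2 versus genomic LEU3, or by plate-reader OD600-normalized fluorescence relative to w.t. TP-DNAP1.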
For B1, the “Mean fold-increase over w.t. (p1 copy number)” value (“Mean fold-increase” for short) is recorded as 1.75 fold.
Take B2: the “Mean fold-increase” value was found to be 1.72 fold.
Take B3: the “Mean fold-increase” value turned out to be 1.85 fold.
Consider B4, for which the “Mean fold-increase” value was 2.06 fold.
For B5, the “Mean fold-increase” value was 1.53 fold.
B6: the “Mean fold-increase” value is given as 1.84 fold.

(Values after patent US20230242902A1, “A HIGHLY ERROR-PRONE […] R[…] FOR TARGETED CONTINUOUS EVOLUTION IN VIVO” (The Regents of the University of California, priority 2017, published 2023).)
